From IntAct's records for PubMed 23274085

B1: Sestrin-2 (Homo sapiens), P58004 (parent)
chain: MIVADSECRAELKDYLRFAPGGVGDSGPGEEQRESRARRGPRGPSAFIPVEEVLREGAESLEQHLGLEALMSSGRVDNLAVVMGLHPDYFTSFWRLHYLLLHTDGPLASSWRHYIAIMAAARHQCSYLVGSHMAEFLQTGGDPEWLLGLHRAPEKLRKLSEINKLLAHRPWLITKEHIQALLKTGEHTWSLAELIQALVLLTHCHSLSSFVFGCGILPEGDADGSPAPQAPTPPSEQSSPPSRDPLNNSGGFESARDVEALMERMQQLQESLLRDEGTSQEEMESRFELEKSESLLVTPSADILEPSPHPDMLCFVEDPTFGYEDFTRRGAQAPPTFRAQDYTWEDHGYSLIQRLYPEGGQLLDEKFQAAYSLTYNTIAMHSGVDTSVLRRAIWNYIHCVFGIRYDDYDYGEVNQLLERNLKVYIKTVACYPEKTTRRMYNLFWRHFRHSEKVHVNLLLLEARMQAALLYALRAITRYMT

Variants of: B1
Conditions: with keap1_human KEAP1, Q14145
keap1_human KEAP1, Q14145, sequence (Q14145 whole entry): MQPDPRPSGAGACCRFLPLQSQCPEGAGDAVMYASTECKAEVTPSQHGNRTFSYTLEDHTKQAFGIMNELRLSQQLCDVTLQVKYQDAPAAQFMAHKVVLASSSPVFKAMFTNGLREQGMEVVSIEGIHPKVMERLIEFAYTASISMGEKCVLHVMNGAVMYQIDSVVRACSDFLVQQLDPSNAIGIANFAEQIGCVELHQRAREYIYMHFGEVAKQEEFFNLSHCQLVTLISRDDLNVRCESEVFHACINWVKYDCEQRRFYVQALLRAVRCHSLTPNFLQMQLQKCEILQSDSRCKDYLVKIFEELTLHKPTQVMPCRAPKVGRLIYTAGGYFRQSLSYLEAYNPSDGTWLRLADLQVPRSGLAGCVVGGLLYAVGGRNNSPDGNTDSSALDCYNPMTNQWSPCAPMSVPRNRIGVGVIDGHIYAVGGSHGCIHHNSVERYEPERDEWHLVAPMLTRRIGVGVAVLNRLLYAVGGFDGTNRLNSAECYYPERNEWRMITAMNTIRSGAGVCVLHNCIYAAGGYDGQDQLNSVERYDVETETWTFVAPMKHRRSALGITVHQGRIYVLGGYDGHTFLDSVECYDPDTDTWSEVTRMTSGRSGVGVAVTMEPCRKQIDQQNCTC

| Variant | effect of a mutation on the interaction |
| --- | --- |
| MIVADSECRAELKDYLRFAPGGVGDSGPGEEQRESRARRGPRGPSAFIPVEEVLREGAESLEQHLGLEALMSSGRVDNLAVVMGLHPDYFTSFWRLHYLLLHTDGPLASSWRHYIAIMAAARHQSSYLVGSHMAEFLQTGGDPEWLLGLHRAPEKLRKLSEINKLLAHRPWLITKEHIQALLKTGEHTWSLAELIQALVLLTHCHSLSSFVFGCGILPEGDADGSPAPQAPTPPSEQSSPPSRDPLNNSGGFESARDVEALMERMQQLQESLLRDEGTSQEEMESRFELEKSESLLVTPSADILEPSPHPDMLCFVEDPTFGYEDFTRRGAQAPPTFRAQDYTWEDHGYSLIQRLYPEGGQLLDEKFQAAYSLTYNTIAMHSGVDTSVLRRAIWNYIHCVFGIRYDDYDYGEVNQLLERNLKVYIKTVACYPEKTTRRMYNLFWRHFRHSEKVHVNLLLLEARMQAALLYALRAITRYMT [C125S] | with no effect |
